Assay [1] concerns the target T1, hPHD-HD1 complex (hPygo1 PHD 333-402 with hBCL9 HD1) (human, UniProt Q9Y3Y4 333-402; O00512 177-205).
T1 chain 1: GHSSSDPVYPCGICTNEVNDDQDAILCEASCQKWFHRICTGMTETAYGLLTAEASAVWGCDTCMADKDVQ
T1 chain 2: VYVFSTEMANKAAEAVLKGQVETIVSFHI
Put plainly: ITC. On the technique in general: Isothermal titration calorimetry measures the heat released or taken up as one component is titrated into another.

In assay [2] the target is hPygo1 PHD finger mutated at N351 (human, UniProt Q9Y3Y4 333-402). As to the kind of experiment: ITC; N351A.
In assay [3] the target is hPygo1 PHD finger mutated at Q354 (human, UniProt Q9Y3Y4 333-402). Put plainly: ITC; Q354A.
The target in another assay is T2, hPygo1 PHD finger V350E (human, UniProt Q9Y3Y4 333-402, V350E).
T2 sequence: T1 chain 1 with V18E
Put plainly: ITC.

Numbering of substitutions follows the chain as printed. No end group written: not given here.

In the case of ARTK(Me)QTARKSTGGKA [H3K4me1 15-mer histone H3 tail peptide], the equilibrium dissociation constant (Kd) (usually the free concentration of one partner at which half of the binding sites on the other are occupied at equilibrium, for simple one-to-one binding) in assay [1] is 2.2 µM.
Take ARTKQTARKSTGGKA (trimethyl-lysine at K4) [H3K4me3 15-mer histone H3 tail peptide]: the values for the Kd (in assay [2]; in assay [3]; with hPygo1 PHD finger V350E) were 7.1 µM, 13.8 µM and 98 µM, respectively.
GRTKQTARK (dimethyl-lysine at K4) [H3K4me2 9-mer whose A1 was substituted with a glycine] came in with a Kd in assay [1] of 99.8 µM.
